From US7732178B2, “Laccase enzymes and their uses” (AB Enzymes Oy, priority 2004, dated 2010)
Values joined by “and” are separate entries in the source; they are usually repeats but may differ in a detail not shown here. Equal entries are not always repeated. Values belong to the molecule of their own block, whether it stands above or below them.

Tests used:
[1] = test system: wild type Chaetomium (CtL) laccase; type: biochemical, Chaetomium thermophilum; details: pH 5
[2] = Specific activity towards di-methoxy-phenol (DMP); type: biochemical; details: 25 mM MES buffer, pH 5.5
Procedure: (§1) Specific activities of the purified T. arenaria and C. thermophilum laccases were determined towards different laccase substrates.

[3] = Denim bleaching at different pH values; set-up: key to After laccase treatment L* / After laccase treatment b* / Increase of L*: CIE L*a*b* colour coordinates (illuminant D65), Minolta reflectance; details: face side of denim, 30 min, 50° C.
Procedure: (§2) Lee Cooper jeans (MASI Company Oy, Finland) that were desized and treated with neutral ECOSTONE® cellulase were used as test material. Laccase treatments were performed in LP-2 Launder Ometer as follows. About 10 g of denim swatches (15×14 cm) were loaded into 1.2 liter containers containing 200 ml Mc Ilvaine's citrate phosphate buffer pH 5, 6 or 7 and the containers were temperated. Enzyme with or without the mediator (methyl syringate, DeniLite II Assist, Novozymes) was added as laccase activity units. Enzyme was dosed 200 nkat/g and the mediator 10 mg/g on the weight of fabric. […] The Launder Ometer was run at 50° C. for 30 min and after that the temperature in Launder was raised to 80° C. for 10 min. The swatches were carefully rinsed with warm water, dried half-dry in a tumbler and after that air dried.
(§3) The bleaching effect was evaluated by measuring the colour as reflectance values with the Minolta Chromameter CM 1000 (Minolta Co.) using L*a*b* color space coordinates (illuminant D65). The colour from both sides of the swatches was measured before and after the laccase treatment. Each measurement was the average of several measurements.

[4] = Stain removal, tea soiling; set-up: key to Tea L* / Tea a* / Tea b*: CIE L*a*b* color coordinates from reflectance; details: 60 min, pH 6
Procedure: (§4) Laccases CtLcc1, TaLcc2, TaLcc4 and Denilite II Base (Example 7) were tested for their ability to remove stains. The following artificially soiled test cloths were used: grass soiling (Art.164, EMPA Testmaterialen, Germany), tea soiling (Art. 167, EMPA Testmaterialen, Germany). The fabric was cut in 5.8×5.8 cm swatches. Laccase treatments were performed in LP-2 Launder Ometer as follows. About 5 g of soiled fabrics were loaded into 1.2 liter containers containing 150 ml Mc Ilvaine's citrate phosphate buffer pH 6 and the containers were temperated. Enzyme with or without the mediator (methyl syringate, DeniLite II Assist, Novozymes) was added as laccase activity units (Example 7). Enzyme was dosed 200 nkat/g and the mediator 10 mg/g on the weight of fabric, except at 40° C. dosages of 20 nkat/g and 2 mg/g were also used. The Launder Ometer was run at 40, 50 or 60° C. and pH 6 for 60 min. After that the swatches were carefully rinsed under running water and in shake flasks containing warm water and dried in the air.
(§5) The stain removal effect was evaluated by measuring the colour as reflectance values using L*a*b* color space coordinates (Example 7). The colour of the swatches was measured before and after the laccase treatment.

[5] = Denim bleaching at different temperatures; set-up: key to After laccase treatment L* / After laccase treatment b* / Increase of L*: CIE L*a*b* colour coordinates (illuminant D65), reflectance; details: face side of denim; 30 min, 40° C., pH 6; enzyme 200 nkat/g, mediator 10 mg/g
Procedure: as §2, §3
The test system and denim were as in Example 7, except that the conditions during the laccase and mediator treatment in Launder were 30 min, pH 6 and temperature 30-70° C. (DeniLite II Base also at 80° C.) and the enzyme was inactivated by alkaline treatment instead of raising the temperature in Launder as follows. After removing swatches from the containers they were soaked in warm water containing NaOH (pH 11.5) for 10 min and rinsed carefully with warm water. The swatches were dried half-dry in a tumbler and after that air dried. The bleaching effect was evaluated by measuring the colour as reflectance values as in Example 7.

[6] = Stain removal, grass soiling; set-up: key to Grass L* / Grass a* / Grass b*: CIE L*a*b* color coordinates from reflectance; details: for Grass L* / Grass a* / Grass b*: 60 min, pH 6
Procedure: as §4, §5

[7] = Specific activity towards syringaldazine; type: biochemical; details: 25 mM MES buffer, pH 5.5
Procedure: as §1

[8] = Isoelectric focusing (pI); type: physicochemical; details: pH range 3-9
Procedure: Molecular weight of the T. arenaria and C. thermophilum laccases were determined on SDS-PAGE according to Laemmli (1970) The gels used in the SDS-PAGE analysis were ready-made 12% Tris HCl gels (BioRad). Protein bands were visualized by staining with Coomassie Brilliant Blue (R 350; Pharmacia) and compared with molecular weight markers (Prestained Protein Marker Broad Range #7708S; New England BioLabs, Beverly, Mass.). The molecular weight of the both laccases was approximately 80 kDa. The isoelectric point of the laccases was determined with isoelectric focusing within the pH range of 3-9 (Pharmalyte IEF, Pharmacia) on a LKB 2117 Multiphor II Electrophoresis System (LKB Pharmacia, Bromma, Sweden) according to the manufacturer's instructions.
The purified recombinant Thielavia and Chaetomium laccases were characterized in terms of pH optimum, thermal stability, and pI as described in Example 2. The molecular weight was determined by MALDI-TOF mass spectrometry on a Ultraflex™ time-of-flight instrument (BrukerDaltonics, Germany) as previously described (Palonen et al., 2003). The redox-potentials of the T1 coppers of for CtLcc, and TaLcc2 laccases were determined by photometric copper titration in 0.1 M KH2PO4 (pH 6.0) as described by Xu et al. (1996) using the redox titrant couple K3Fe(CN)6/K4Fe(CN)6. The redox potential of TaLcc1 was determined with a combined Pt—AgCl/KCl microelectrode at pH 5.0 according to Sigoillot et al (2004). The characterization results are collected to Table 14.

[9] = Specific activity towards ABTS; type: biochemical; details: 25 mM succinate buffer pH 4.5, 25° C.
Procedure: The activity assay was carried out in accordance with the method developed by Niku-Paavola et al. (1988). The sample was diluted with 0.025 M succinate buffer, pH 4.5. […] The activity is expressed as nano katals.
as §1

[10] = Specific activity towards guaiacol; type: biochemical; details: 25 mM MES buffer, pH 5.5
Procedure: as §1

[11] = pH 5, enzyme 200 nkat/g without the mediator, or mediator 10 mg/g alone
[12] = pH 5, enzyme 200 nkat/g, mediator 10 mg/g
[13] = pH 6, enzyme 200 nkat/g without the mediator, or mediator 10 mg/g alone
[14] = pH 6, enzyme 200 nkat/g, mediator 10 mg/g
[15] = pH 7, enzyme 200 nkat/g without the mediator, or mediator 10 mg/g alone
[16] = pH 7, enzyme 200 nkat/g, mediator 10 mg/g
[17] = 40° C., enzyme 20 nkat/g + mediator 2 mg/g (Mediator only: 0 nkat/g)
[18] = 40° C., enzyme 200 nkat/g + mediator 10 mg/g (Mediator only: 0 nkat/g)
[19] = 40° C., enzyme 200 nkat/g, mediator 0 mg/g
[20] = 50° C., enzyme 200 nkat/g + mediator 10 mg/g (Mediator only: 0 nkat/g)

Molecule: [F-].[Na+] [NaF]
Inhibition (%) CtL [1]: 40% and 70%

After laccase treatment L* [3, 11]: 29.40
After laccase treatment b* [3, 11]: −18.70
After laccase treatment L* [3, 12]: 29.17
After laccase treatment b* [3, 12]: −18.47
After laccase treatment L* [3, 13]: 27.68
After laccase treatment b* [3, 13]: −18.76
After laccase treatment L* [3, 14]: 29.55
After laccase treatment b* [3, 14]: −18.11
After laccase treatment L* [3, 15]: 29.29
After laccase treatment b* [3, 15]: −18.89
After laccase treatment L* [3, 16]: 28.31
After laccase treatment b* [3, 16]: −18.33
After laccase treatment L* [5]: 29.23
After laccase treatment b* [5]: −18.44
B1: TaLcc4: Thielavia arenaria ALKO 4197 laccase, SEQ ID NO: 45, produced in Trichoderma reesei (protein)
chain: MISRLLFTSSFTATLASALPGLLYAPHSSALLARSSCSGNTASTRSQWCDYSIDTDYTTEPVDTGVTREYWLELTDVTVSPDGVSRSAMAVNGSIPGPTIFADWGDTVVVHVTNSLSTSLNGTSIHWHGIRQNYTNQNDGVASITQCPLAVGESTTYTWKATQYGSSWYHSHFSLQAWEGVFGGIIINGPSTANYDEDLGMLFLNDWDHQTVDELYSSAETSGPPTLANGLINGTNVYGEDGDSSQTGTRLAVSFTSGTSYRMRLVNAAVDTHWKFSIGNHTMTVMAADLVPIEPYETTVLTIGMGQRYDIVVTADQADVADNFWMRAIPQSACSDNDSADNIRGIVYYGDSPGTPSTTGYDFEDACDDETANITPYISKTVSSAEWNDLETASVSRNSAGLFKWYLNSTTMLVDWAKPTLEMVTDNVTEYDSDDAIIELNEANQWVYMVVQTTLQVPHPIHLHGHDFFILAQGSGTYDSSTVTLKTDNPPRRDTAMLPSQGYLVMAWETDNPGVWLMHCHIGWHTSEGFALQFIERKSEIASIVSTSTMKDICTKWEEFQEEYSIEQEDSGV
modifications: Thielavia arenaria ALKO4197; (1)..(573) Deduced amino acid sequence of Thielavia arenaria ALKO4197 TaLcc4
Specific activity on DMP [2]: 110 nkat/mg
Increase of L* [3, 11]: −0.04
Increase of L* [3, 12]: 1.01
Increase of L* [3, 13]: 0.24
Increase of L* [3, 14]: 1.35
Increase of L* [3, 15]: 0.50
Increase of L* [3, 16]: 0.47
Tea L* [4, 17]: 75.09
Tea a* [4, 17]: 5.73
Tea b* [4, 17]: 22.08
Tea L* [4, 18]: 74.56
Tea a* [4, 18]: 5.58
Tea b* [4, 18]: 23.55
Tea L* [4, 19]: 76.74
Tea a* [4, 19]: 5.05
Tea b* [4, 19]: 21.67
Tea L* [4, 20]: 75.13
Tea a* [4, 20]: 5.19
Tea b* [4, 20]: 22.44
Increase of L* [5]: 0.12
greenness reduced (grass) ([6]; 50° C.): ca. 2 units
Grass L* [6, 17]: 78.53
Grass a* [6, 17]: −6.07
Grass b* [6, 17]: 19.33
Grass L* [6, 18]: 78.94
Grass a* [6, 18]: −3.77
Grass b* [6, 18]: 16.77
Grass L* [6, 19]: 79.84
Grass a* [6, 19]: −4.98
Grass b* [6, 19]: 17.62
Grass L* [6, 20]: 78.62
Grass a* [6, 20]: −4.00
Grass b* [6, 20]: 17.16
Specific activity on syringaldazin [7]: 52 nkat/mg
pI [8]: 3.0
Specific activity on ABTS [9]: 1000 nkat/mg
Specific activity on guaiacol [10]: 5 nkat/mg
